According to paper PMC5711931:
Blank lines part the entries; values can stand above or below the substance they belong to.

Tests used:
[1] = target: F-actin of the thin filaments in ghost muscle fibres (rabbit psoas) (rabbit (endogenous in m. psoas fibres)) (UniProt P68135); test: incorporation into ghost muscle fibres, washing, SDS-PAGE; ghost fibres with thin filaments reconstructed with Tpm and TN, decorated with S1; absence of nucleotide
[2] = target: F-actin of the thin filaments in ghost muscle fibres (rabbit psoas) (rabbit (endogenous in m. psoas fibres)) (UniProt P68135); test: incorporation into ghost muscle fibres, washing, SDS-PAGE; ghost fibres with thin filaments reconstructed with Tpm and TN, decorated with S1; presence of ATP (5 mM ATP, 18 mM MgCl2, creatine phosphate and creatine kinase)
[3] = target: F-actin of the thin filaments in ghost muscle fibres (rabbit psoas) (rabbit (endogenous in m. psoas fibres)) (UniProt P68135); test: incorporation into ghost muscle fibres, washing, SDS-PAGE; ghost fibres with thin filaments reconstructed with Tpm and TN, decorated with S1; presence of AMPPNP (16 mM AMPPNP, 8 mM MgCl2)
[4] = target: F-actin of the thin filaments in ghost muscle fibres (rabbit psoas) (rabbit (endogenous in m. psoas fibres)) (UniProt P68135)
[5] = target: F-actin of the thin filaments in ghost muscle fibres (rabbit psoas) (rabbit (endogenous in m. psoas fibres)) (UniProt P68135); test: incorporation into ghost muscle fibres, washing, SDS-PAGE; ghost fibres with thin filaments reconstructed with Tpm and TN, decorated with S1; presence of ADP (2.5 mM ADP, 3 mM MgCl2)
[6] = target: F-actin of the thin filaments in ghost muscle fibres (rabbit psoas) (rabbit (endogenous in m. psoas fibres)) (UniProt P68135); test: fluorescence intensity of the labelled protein in ghost muscle fibres (polarized fluorimeter); AF-Tpm-TN incorporated into the actin filaments of ghost fibres; Isum of the four polarized intensity components, n = 25; excitation 436 ± 5 nm, emission 500-600 nm
[7] = target: F-actin of the thin filaments in ghost muscle fibres (rabbit psoas) (rabbit (endogenous in m. psoas fibres)) (UniProt P68135); test: incorporation into ghost muscle fibres, washing, SDS-PAGE with densitometry; single rabbit psoas ghost fibres incubated with Tpm and TN in 50 mM KCl, 3 mM MgCl2, 1 mM DTT, 6.7 mM K, Na phosphate buffer, pH 7.0; unbound Tpm and TN washed out for 15 min; 8-10 fibres per gel lane, 12% SDS-PAGE, ImageJ

myosin subfragment-1 from rabbit fast skeletal muscle myosin (domain or fragment), sequence (Q28641 whole entry, the tested form may be a part): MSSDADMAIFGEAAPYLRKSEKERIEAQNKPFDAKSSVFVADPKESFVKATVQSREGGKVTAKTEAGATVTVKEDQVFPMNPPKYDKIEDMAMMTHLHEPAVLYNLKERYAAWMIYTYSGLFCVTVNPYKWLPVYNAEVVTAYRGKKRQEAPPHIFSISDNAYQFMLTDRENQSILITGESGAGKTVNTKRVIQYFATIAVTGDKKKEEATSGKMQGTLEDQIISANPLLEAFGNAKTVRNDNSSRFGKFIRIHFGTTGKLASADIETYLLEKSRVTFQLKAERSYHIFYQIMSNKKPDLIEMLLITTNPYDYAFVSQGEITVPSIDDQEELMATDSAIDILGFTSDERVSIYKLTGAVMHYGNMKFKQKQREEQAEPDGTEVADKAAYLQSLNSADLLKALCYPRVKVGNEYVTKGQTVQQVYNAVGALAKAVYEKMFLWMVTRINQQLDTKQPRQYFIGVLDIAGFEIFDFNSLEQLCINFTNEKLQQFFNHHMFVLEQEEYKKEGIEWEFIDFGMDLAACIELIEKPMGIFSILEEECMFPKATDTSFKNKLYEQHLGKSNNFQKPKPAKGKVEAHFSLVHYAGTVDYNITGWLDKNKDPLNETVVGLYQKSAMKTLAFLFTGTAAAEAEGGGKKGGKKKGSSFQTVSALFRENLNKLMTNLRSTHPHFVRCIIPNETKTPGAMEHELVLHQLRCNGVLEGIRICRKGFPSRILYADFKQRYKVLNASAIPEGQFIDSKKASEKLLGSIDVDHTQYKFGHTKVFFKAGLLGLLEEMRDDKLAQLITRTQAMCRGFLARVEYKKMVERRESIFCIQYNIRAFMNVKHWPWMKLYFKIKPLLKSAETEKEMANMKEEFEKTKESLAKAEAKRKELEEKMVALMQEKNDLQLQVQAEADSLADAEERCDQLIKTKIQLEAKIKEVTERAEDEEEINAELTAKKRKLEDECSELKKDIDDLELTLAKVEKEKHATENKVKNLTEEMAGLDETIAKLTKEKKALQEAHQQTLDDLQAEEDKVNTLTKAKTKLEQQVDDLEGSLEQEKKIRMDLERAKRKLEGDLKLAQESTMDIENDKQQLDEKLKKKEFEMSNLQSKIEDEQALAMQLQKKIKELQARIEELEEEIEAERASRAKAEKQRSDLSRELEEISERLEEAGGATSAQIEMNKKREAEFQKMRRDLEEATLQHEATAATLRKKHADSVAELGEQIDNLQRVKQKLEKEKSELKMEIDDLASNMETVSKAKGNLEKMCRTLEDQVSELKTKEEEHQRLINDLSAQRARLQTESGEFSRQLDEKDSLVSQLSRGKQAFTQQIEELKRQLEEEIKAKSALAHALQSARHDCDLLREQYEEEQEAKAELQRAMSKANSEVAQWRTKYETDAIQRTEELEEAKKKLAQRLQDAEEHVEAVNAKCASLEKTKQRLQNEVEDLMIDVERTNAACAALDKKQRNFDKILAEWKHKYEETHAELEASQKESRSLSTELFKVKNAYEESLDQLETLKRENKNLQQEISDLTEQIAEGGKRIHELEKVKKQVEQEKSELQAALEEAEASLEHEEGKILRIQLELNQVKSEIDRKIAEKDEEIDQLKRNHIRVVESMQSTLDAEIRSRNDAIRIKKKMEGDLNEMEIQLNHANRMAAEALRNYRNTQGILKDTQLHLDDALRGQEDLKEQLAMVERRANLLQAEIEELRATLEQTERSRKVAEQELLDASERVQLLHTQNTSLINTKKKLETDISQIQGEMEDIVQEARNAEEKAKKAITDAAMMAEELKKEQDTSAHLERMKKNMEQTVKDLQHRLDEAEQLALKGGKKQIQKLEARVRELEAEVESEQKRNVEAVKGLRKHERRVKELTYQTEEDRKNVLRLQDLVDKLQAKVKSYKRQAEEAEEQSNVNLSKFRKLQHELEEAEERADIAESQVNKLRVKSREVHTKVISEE

molar ratio of S1 to actin (1:x, value is x) (mol actin per mol S1) [1]: 5
molar ratio of S1 to actin (1:x, value is x) (mol actin per mol S1) [2]: 14
molar ratio of S1 to actin (1:x, value is x) (mol actin per mol S1) [3]: 8
ΦE of the polarized fluorescence of AEDANS-S1 in ghost fibres containing ΔE139Tpm against fibres containing WTTpm; TN, high Ca2+, no nucleotide [4]: 0.4 °
molar ratio of S1 to actin (1:x, value is x) (mol actin per mol S1) [5]: 5
Substance: myosin subfragment-1 from rabbit fast skeletal muscle myosin (domain or fragment)

fluorescence intensity Isum of the bound labelled Tpm [6]: 266
Substance: recombinant tropomyosin Tpm2.2 with the E139 deletion labelled with 5-IAF (natural protein)

amount bound, percent of the amount of WTTpm [7]: 85%
Substance: recombinant tropomyosin Tpm2.2 with the E139 deletion, ββ-homodimer (natural protein)

fluorescence intensity Isum of the bound labelled Tpm [6]: 236
Substance: recombinant wild-type tropomyosin Tpm2.2 labelled with 5-IAF (natural protein)
